The text below walks through data of article PMC3098871, “High Throughput Determination of TGFβ1/SMAD3 Targets in A549 Lung Epithelial Cells”.

For this series, the target named is SMAD3 (UniProt P84022 1-425). The series can be described thus: EMSA; poly(dI-dC) 0.25 mg/mL; two complexes, partially abolished by unlabeled probe (40 and 200 ng); 20% glycerol, 5 mM MgCl2, 2.5 mM EDTA, 25 mM DTT, 200 mM NaCl, 50 mM Tris-HCl pH 7.6, 0.25 mg/mL poly(dI-dC), 20 min at room temperature; 6% native PAGE. The following applies: protein: commercial; label: 5'-Cy5 on strand 1; blunt.
SMAD3, sequence (P84022 whole entry): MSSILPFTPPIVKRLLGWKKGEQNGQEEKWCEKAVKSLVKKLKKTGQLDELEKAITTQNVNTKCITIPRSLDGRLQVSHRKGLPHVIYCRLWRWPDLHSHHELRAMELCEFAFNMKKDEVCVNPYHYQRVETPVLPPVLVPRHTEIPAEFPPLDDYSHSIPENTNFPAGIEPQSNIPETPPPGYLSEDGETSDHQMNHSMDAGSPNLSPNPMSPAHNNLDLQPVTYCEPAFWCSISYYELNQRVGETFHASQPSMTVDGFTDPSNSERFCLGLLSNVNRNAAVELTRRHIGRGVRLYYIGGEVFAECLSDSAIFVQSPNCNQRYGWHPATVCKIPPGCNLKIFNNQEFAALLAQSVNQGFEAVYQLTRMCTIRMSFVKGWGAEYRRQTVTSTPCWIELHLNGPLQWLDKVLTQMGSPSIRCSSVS

B1: FOXA2 promoter probe (-42 to -19) (dsDNA)
DNA 1: GATTGCTGGTCGTTTGTTGTGGCT
DNA 2: AGCCACAACAAACGACCAGCAATC
For B1, the binding result is reported as “binds”.
